Test results from US20100203046A1 (Biogen, published 2010).

Tests used:
[1] = target: T1, human FcγRIII (CD16), CD16a (F158), on CD16-transfected Jurkat cells (human, UniProt P08637 17-254); experiment: CD16 bridging assay, purified
T1 construct: whole, on cells

[2] = target: T2, human FcγRI (CD64) on IFNγ-activated U937 cells (human, UniProt P12314 16-374); experiment: CD64 bridging assay, purified
T2 construct: whole, on cells; also called FcγR1

[3] = target: T3, human FcγRIIb (CD32b) on CHO-FcγRII cells (human, UniProt P31994 43-310); experiment: CD32b bridging assay, purified
T3 construct: whole, on cells
T3 sequence (looked up): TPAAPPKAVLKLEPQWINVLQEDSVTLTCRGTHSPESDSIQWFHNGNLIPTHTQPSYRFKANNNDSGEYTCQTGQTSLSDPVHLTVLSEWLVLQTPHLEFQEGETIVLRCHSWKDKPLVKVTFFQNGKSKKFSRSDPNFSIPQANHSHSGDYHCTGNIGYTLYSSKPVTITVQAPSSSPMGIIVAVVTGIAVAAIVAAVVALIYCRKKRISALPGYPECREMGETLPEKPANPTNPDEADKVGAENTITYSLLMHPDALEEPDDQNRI

human C1q (Sigma C0660) [4] = target: T4, human C1q (Sigma C0660) (human, UniProt P02745 23-245; P02746 28-253; P02747 29-245); experiment: C1q ELISA on CD2, purified
T4 construct: Bought protein; also called complement protein C1q

[5] = target: T1, human FcγRIII (CD16), CD16a (F158), on …; experiment: CD16 bridging assay, transient
[6] = target: T1, human FcγRIII (CD16), CD16a (F158), on …; experiment: summary of Table 6 assays
[7] = target: T1, human FcγRIII (CD16), CD16a (F158), on …; experiment: CD16 bridging assay, transient; remark: listed apart in the source
human C1q (Sigma C0660) [8] = target: T4, human C1q (Sigma C0660); experiment: C1q ELISA on CD2, transient
[9] = target: T5, GST-tagged FcγRIII, CD16a (V158) (UniProt P08637 17-208, limits assumed); experiment: AlphaScreen competition vs huIgG1 beads, purified
T5 construct: the canonical entry carries F there; Captured by biotinylated anti-GST mAb on streptavidin donor beads; also called GST-FcγRIII; not shown: GST tag
Method: The relative binding affinities to FcγRIII (CD16), of the variant antibodies, was determined using an AlphaScreen assay (Amplified Luminescent Proximity Homogeneous Assay, PerkinElmer, MA, USA). Laser excitation of a donor bead excites oxygen, which if in close proximity to an acceptor bead generates a cascade of chemiluminescent events, ultimately leading to fluorescence emission at 520-620 nm. […] The reaction was carried out for one hour in a 25 μl volume and plates were read in the Fusion Alpha reader (PerkinElmer).

[10] = target: T1, human FcγRIII (CD16), CD16a (F158), on …; experiment: CD16 bridging assay, purified; remark: listed apart in the source
[11] = target: T1, human FcγRIII (CD16), CD16a (F158), on …; experiment: CD16 bridging assay, transient; remark: listed apart in the source
[12] = target: T5, GST-tagged FcγRIII, CD16a (V158); experiment: summary of Table 4 assays (CD16a)
[13] = target: T1, human FcγRIII (CD16), CD16a (F158), on …; experiment: CD16 bridging assay, purified; remark: listed apart in the source
[14] = target: T1, human FcγRIII (CD16), CD16a (F158), on …; experiment: CD16 bridging assay, purified; remark: listed apart in the source
[15] = target: T1, human FcγRIII (CD16), CD16a (F158), on …; experiment: CD16 bridging assay, transient; remark: listed apart in the source
[16] = target: T1, human FcγRIII (CD16), CD16a (F158), on …; experiment: summary of Table 5 assays
[17] = target: Human FcγRIIIa on natural killer (NK) cells of a donor (human, UniProt P08637 17-254); experiment: cell-based or functional assay
Human FcγRIIIa on natural killer (NK) cells of a donor, sequence (P08637 17-254): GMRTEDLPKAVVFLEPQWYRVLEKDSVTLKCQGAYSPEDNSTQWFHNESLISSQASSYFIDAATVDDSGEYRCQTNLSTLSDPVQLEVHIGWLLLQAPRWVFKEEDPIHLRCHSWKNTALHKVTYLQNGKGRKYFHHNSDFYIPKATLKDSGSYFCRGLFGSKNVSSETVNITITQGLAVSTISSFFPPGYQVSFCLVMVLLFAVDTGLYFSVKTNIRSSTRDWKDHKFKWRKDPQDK

T1 sequence (P08637 17-254): as above
T4 sequence (P02745 23-245 limits assumed, chain 1 of 3): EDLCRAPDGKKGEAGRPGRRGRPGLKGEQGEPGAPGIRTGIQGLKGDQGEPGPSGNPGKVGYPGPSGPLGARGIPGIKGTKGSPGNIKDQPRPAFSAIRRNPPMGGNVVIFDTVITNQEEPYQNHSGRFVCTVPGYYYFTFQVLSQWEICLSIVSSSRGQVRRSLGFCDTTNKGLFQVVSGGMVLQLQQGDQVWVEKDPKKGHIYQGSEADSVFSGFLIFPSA
T4 sequence (P02746 28-253 limits assumed, chain 2 of 3): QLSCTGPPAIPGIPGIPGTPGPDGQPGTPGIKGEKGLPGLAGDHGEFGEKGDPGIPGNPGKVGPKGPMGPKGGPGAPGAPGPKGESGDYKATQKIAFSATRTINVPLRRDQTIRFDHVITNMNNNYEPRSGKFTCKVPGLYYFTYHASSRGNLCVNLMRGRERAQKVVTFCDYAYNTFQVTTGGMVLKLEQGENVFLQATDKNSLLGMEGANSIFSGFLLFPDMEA
T4 sequence (P02747 29-245 limits assumed, chain 3 of 3): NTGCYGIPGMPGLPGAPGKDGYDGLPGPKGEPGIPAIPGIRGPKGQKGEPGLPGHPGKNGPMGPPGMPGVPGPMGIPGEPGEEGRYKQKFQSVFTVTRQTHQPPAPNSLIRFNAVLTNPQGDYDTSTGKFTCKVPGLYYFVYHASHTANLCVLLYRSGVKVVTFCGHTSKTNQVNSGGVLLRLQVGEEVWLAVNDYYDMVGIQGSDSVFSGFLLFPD
T5 sequence (P08637 17-208 F176V limits assumed): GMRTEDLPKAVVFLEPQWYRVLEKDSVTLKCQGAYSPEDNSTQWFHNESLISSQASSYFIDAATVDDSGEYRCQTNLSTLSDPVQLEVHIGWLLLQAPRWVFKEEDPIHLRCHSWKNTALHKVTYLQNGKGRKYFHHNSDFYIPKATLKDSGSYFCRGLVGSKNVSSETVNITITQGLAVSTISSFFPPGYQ
T2 sequence (P12314 16-374): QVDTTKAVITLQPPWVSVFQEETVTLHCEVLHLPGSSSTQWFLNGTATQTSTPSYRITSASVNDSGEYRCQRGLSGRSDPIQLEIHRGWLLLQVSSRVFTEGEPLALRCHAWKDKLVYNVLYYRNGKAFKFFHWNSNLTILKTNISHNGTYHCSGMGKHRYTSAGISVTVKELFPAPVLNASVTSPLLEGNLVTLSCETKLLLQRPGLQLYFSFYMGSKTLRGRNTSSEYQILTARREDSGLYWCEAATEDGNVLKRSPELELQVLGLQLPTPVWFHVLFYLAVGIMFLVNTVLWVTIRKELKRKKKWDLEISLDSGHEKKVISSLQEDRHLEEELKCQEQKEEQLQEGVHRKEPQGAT

B1: chCB6-huIgG1 L328N (antibody, name in EU numbering)
heavy: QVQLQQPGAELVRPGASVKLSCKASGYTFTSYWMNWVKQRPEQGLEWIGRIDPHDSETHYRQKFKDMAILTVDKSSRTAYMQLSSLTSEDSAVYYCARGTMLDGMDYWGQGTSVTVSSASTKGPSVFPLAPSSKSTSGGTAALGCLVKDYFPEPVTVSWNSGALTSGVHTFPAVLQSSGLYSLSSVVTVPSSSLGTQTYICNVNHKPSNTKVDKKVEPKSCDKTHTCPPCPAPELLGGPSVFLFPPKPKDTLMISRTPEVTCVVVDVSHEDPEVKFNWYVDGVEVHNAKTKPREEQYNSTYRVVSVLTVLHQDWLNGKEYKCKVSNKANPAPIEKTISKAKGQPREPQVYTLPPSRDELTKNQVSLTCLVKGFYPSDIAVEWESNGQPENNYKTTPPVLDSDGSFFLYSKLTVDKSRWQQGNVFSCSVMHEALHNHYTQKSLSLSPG
light: QIVLTQSPAIMSASPGEKVTMTCRASSSVSHMHWYQQKSGTSPKRWIYDTSKLASGVPARFSGSGSGTSYSLTISSVEAEDAATYYCQQWSSNPLTFGAGTKLELKRTVAAPSVFIFPPSDEQLKSGTASVVCLLNNFYPREAKVQWKVDNALQSGNSQESVTEQDSKDSTYSLSSTLTLSKADYEKHKVYACEVTHQGLSSPVTKSFNRGEC
notes: copies: 2 + 2
B1 was tested, and the “fold decrease in binding vs WT” value [1] was 10 fold, the binding result [2] was “binds” and the “fold decrease in binding vs WT” value [3] was 3 fold. The binding result (human C1q (Sigma C0660) [4]) was “no binding” and the “fold decrease in binding vs WT” value [5] was 2 fold.

B2: chCB6-huIgG1 D376K (antibody, name in EU numbering)
heavy: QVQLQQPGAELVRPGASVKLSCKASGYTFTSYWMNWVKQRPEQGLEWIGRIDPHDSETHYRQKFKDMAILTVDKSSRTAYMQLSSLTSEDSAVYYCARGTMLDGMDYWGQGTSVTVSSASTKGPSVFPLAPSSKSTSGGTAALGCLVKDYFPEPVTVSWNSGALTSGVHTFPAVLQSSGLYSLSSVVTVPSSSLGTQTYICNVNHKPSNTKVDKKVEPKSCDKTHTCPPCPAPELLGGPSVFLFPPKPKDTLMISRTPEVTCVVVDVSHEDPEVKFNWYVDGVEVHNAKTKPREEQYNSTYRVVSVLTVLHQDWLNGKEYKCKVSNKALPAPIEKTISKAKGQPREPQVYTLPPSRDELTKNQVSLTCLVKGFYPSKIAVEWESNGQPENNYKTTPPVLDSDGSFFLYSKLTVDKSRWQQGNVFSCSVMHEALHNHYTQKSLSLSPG
light: QIVLTQSPAIMSASPGEKVTMTCRASSSVSHMHWYQQKSGTSPKRWIYDTSKLASGVPARFSGSGSGTSYSLTISSVEAEDAATYYCQQWSSNPLTFGAGTKLELKRTVAAPSVFIFPPSDEQLKSGTASVVCLLNNFYPREAKVQWKVDNALQSGNSQESVTEQDSKDSTYSLSSTLTLSKADYEKHKVYACEVTHQGLSSPVTKSFNRGEC
notes: copies: 2 + 2
For B2, the “fold decrease in binding vs WT” value [6] was over 10 fold, the “fold decrease in binding vs WT” value [7] was 15 fold and the binding result (human C1q (Sigma C0660) [8]) was “binds”.

B3: chCB6-huIgG1 T299C (antibody, name in EU numbering)
heavy: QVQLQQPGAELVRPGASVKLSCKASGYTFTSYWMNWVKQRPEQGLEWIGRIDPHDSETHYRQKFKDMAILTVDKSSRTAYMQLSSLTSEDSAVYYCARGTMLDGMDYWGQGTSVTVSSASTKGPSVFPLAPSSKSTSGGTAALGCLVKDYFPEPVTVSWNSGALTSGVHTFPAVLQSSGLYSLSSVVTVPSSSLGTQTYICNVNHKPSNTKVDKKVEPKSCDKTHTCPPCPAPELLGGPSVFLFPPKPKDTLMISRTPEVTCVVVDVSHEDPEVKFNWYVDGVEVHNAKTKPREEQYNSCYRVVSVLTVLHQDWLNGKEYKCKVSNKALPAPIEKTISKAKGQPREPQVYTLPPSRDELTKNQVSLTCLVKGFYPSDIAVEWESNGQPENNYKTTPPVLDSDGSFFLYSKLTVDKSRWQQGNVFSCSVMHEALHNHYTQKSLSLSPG
light: QIVLTQSPAIMSASPGEKVTMTCRASSSVSHMHWYQQKSGTSPKRWIYDTSKLASGVPARFSGSGSGTSYSLTISSVEAEDAATYYCQQWSSNPLTFGAGTKLELKRTVAAPSVFIFPPSDEQLKSGTASVVCLLNNFYPREAKVQWKVDNALQSGNSQESVTEQDSKDSTYSLSSTLTLSKADYEKHKVYACEVTHQGLSSPVTKSFNRGEC
notes: Assay control; copies: 2 + 2
B3: no binding [9]; no binding [2]; no binding [3]. B3: no binding (human C1q (Sigma C0660) [4]); no binding [5].

B4: chCB6-huIgG1 D376Y (antibody, name in EU numbering)
heavy: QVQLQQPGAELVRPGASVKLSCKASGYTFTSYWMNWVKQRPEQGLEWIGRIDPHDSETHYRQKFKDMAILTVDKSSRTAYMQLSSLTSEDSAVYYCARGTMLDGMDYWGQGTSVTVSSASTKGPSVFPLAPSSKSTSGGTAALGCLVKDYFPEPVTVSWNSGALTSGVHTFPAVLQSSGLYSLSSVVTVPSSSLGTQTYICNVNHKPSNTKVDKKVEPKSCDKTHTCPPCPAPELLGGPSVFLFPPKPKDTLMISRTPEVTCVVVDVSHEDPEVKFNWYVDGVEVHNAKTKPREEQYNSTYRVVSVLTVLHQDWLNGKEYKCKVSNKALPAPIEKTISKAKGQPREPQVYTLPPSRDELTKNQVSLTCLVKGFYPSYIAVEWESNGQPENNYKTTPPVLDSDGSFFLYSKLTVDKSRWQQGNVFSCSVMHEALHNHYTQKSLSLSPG
light: QIVLTQSPAIMSASPGEKVTMTCRASSSVSHMHWYQQKSGTSPKRWIYDTSKLASGVPARFSGSGSGTSYSLTISSVEAEDAATYYCQQWSSNPLTFGAGTKLELKRTVAAPSVFIFPPSDEQLKSGTASVVCLLNNFYPREAKVQWKVDNALQSGNSQESVTEQDSKDSTYSLSSTLTLSKADYEKHKVYACEVTHQGLSSPVTKSFNRGEC
notes: copies: 2 + 2
With B4 the “fold decrease in binding vs WT” value (human C1q (Sigma C0660) [4]) was 3 fold and the “fold decrease in binding vs WT” value [10] was 3 fold.

B5: chCB6-huIgG1 S239D/I332E (antibody, name in EU numbering)
heavy: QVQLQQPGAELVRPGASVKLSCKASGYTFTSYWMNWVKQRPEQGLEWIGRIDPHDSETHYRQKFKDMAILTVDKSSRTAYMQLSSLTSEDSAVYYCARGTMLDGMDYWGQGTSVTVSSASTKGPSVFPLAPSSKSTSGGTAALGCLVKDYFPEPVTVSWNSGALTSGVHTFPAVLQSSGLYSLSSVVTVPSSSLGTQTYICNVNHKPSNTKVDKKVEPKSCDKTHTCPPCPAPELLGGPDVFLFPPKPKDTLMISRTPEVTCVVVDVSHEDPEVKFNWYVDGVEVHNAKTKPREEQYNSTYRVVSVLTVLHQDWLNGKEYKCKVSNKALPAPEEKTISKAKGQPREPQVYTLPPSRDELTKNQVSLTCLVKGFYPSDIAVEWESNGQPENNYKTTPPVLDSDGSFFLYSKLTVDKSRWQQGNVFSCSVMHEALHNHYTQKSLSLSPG
light: QIVLTQSPAIMSASPGEKVTMTCRASSSVSHMHWYQQKSGTSPKRWIYDTSKLASGVPARFSGSGSGTSYSLTISSVEAEDAATYYCQQWSSNPLTFGAGTKLELKRTVAAPSVFIFPPSDEQLKSGTASVVCLLNNFYPREAKVQWKVDNALQSGNSQESVTEQDSKDSTYSLSSTLTLSKADYEKHKVYACEVTHQGLSSPVTKSFNRGEC
notes: copies: 2 + 2
B5 was tested, and the “fold increase in binding vs WT” value [11] was 12 fold, the “fold increase in binding vs WT” value [12] was over 10 fold and the “fold increase in binding vs WT” value [9] was 26 fold. For the same binder, the binding result (human C1q (Sigma C0660) [4]) was “binds” and the “fold increase in binding vs WT” value [13] was 8 fold.

B6: chCB6-huIgG1 Y296A (antibody, name in EU numbering)
heavy: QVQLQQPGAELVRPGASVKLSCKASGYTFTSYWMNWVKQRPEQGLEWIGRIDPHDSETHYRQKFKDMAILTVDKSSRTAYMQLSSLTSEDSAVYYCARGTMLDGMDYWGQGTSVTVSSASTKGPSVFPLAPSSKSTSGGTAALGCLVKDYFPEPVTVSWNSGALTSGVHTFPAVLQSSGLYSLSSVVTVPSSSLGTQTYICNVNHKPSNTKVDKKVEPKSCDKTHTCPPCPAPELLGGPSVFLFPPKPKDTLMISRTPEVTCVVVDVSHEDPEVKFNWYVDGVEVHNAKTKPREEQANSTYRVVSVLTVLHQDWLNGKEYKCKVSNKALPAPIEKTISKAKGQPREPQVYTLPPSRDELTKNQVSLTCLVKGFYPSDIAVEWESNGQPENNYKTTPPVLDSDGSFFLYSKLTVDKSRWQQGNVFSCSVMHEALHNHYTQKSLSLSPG
light: QIVLTQSPAIMSASPGEKVTMTCRASSSVSHMHWYQQKSGTSPKRWIYDTSKLASGVPARFSGSGSGTSYSLTISSVEAEDAATYYCQQWSSNPLTFGAGTKLELKRTVAAPSVFIFPPSDEQLKSGTASVVCLLNNFYPREAKVQWKVDNALQSGNSQESVTEQDSKDSTYSLSSTLTLSKADYEKHKVYACEVTHQGLSSPVTKSFNRGEC
notes: copies: 2 + 2
For B6, the “fold decrease in binding vs WT” value [14] was 5 fold, the “fold decrease in binding vs WT” value [15] was 13 fold and the “fold decrease in binding vs WT” value (human C1q (Sigma C0660) [4]) was 3 fold. For the same binder, the “fold decrease in binding vs WT” value (human C1q (Sigma C0660) [8]) was 5 fold and the “fold decrease in binding vs WT” value [16] was over 10 fold.

B7: chCB6-huIgG1 D376W (antibody, name in EU numbering)
heavy: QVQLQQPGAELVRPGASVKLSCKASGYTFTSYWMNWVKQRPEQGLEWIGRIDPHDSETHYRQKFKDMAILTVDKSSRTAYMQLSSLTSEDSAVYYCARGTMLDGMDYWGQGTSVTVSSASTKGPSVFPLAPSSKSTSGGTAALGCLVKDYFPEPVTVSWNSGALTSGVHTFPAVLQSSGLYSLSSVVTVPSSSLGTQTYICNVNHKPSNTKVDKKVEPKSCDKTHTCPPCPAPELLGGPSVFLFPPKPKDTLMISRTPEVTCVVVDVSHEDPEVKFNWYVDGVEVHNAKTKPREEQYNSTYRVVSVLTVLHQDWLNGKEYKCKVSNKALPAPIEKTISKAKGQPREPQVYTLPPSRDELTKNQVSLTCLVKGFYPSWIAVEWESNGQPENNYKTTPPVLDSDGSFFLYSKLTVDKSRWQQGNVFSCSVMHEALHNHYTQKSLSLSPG
light: QIVLTQSPAIMSASPGEKVTMTCRASSSVSHMHWYQQKSGTSPKRWIYDTSKLASGVPARFSGSGSGTSYSLTISSVEAEDAATYYCQQWSSNPLTFGAGTKLELKRTVAAPSVFIFPPSDEQLKSGTASVVCLLNNFYPREAKVQWKVDNALQSGNSQESVTEQDSKDSTYSLSSTLTLSKADYEKHKVYACEVTHQGLSSPVTKSFNRGEC
notes: copies: 2 + 2
In the case of B7, the “fold decrease in binding vs WT” value [6] is reported as over 10 fold, the “fold decrease in binding vs WT” value [7] is reported as 15 fold and the binding result (human C1q (Sigma C0660) [8]) is reported as “no binding”. The “fold decrease in binding vs WT” value [10] was 3 fold.

B8: chCB6-huIgG1 S239D/I332D (antibody, name in EU numbering)
heavy: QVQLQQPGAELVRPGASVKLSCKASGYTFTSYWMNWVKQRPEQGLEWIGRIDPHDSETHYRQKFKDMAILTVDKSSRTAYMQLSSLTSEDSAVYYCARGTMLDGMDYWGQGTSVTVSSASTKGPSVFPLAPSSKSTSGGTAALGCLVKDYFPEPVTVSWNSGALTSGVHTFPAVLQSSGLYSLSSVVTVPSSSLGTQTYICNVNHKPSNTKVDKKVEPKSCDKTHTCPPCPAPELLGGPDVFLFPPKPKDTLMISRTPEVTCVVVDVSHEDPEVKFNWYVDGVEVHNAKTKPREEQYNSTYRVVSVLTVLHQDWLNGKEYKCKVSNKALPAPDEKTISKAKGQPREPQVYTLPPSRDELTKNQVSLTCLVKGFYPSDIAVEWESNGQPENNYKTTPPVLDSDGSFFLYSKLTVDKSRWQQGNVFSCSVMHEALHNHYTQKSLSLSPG
light: QIVLTQSPAIMSASPGEKVTMTCRASSSVSHMHWYQQKSGTSPKRWIYDTSKLASGVPARFSGSGSGTSYSLTISSVEAEDAATYYCQQWSSNPLTFGAGTKLELKRTVAAPSVFIFPPSDEQLKSGTASVVCLLNNFYPREAKVQWKVDNALQSGNSQESVTEQDSKDSTYSLSSTLTLSKADYEKHKVYACEVTHQGLSSPVTKSFNRGEC
notes: copies: 2 + 2
B8 was tested, and the “fold increase in binding vs WT” value [11] was 4 fold, the “fold increase in binding vs WT” value [12] was over 10 fold and the “fold increase in binding vs WT” value [9] was 15 fold. For the same binder, the binding result (human C1q (Sigma C0660) [4]) was “binds” and the “fold increase in binding vs WT” value [13] was 6 fold.

B9: chCB6-huIgG1 triple mutant S298A/E333A/K334A (antibody, name in EU numbering)
heavy: QVQLQQPGAELVRPGASVKLSCKASGYTFTSYWMNWVKQRPEQGLEWIGRIDPHDSETHYRQKFKDMAILTVDKSSRTAYMQLSSLTSEDSAVYYCARGTMLDGMDYWGQGTSVTVSSASTKGPSVFPLAPSSKSTSGGTAALGCLVKDYFPEPVTVSWNSGALTSGVHTFPAVLQSSGLYSLSSVVTVPSSSLGTQTYICNVNHKPSNTKVDKKVEPKSCDKTHTCPPCPAPELLGGPSVFLFPPKPKDTLMISRTPEVTCVVVDVSHEDPEVKFNWYVDGVEVHNAKTKPREEQYNATYRVVSVLTVLHQDWLNGKEYKCKVSNKALPAPIAATISKAKGQPREPQVYTLPPSRDELTKNQVSLTCLVKGFYPSDIAVEWESNGQPENNYKTTPPVLDSDGSFFLYSKLTVDKSRWQQGNVFSCSVMHEALHNHYTQKSLSLSPG
light: QIVLTQSPAIMSASPGEKVTMTCRASSSVSHMHWYQQKSGTSPKRWIYDTSKLASGVPARFSGSGSGTSYSLTISSVEAEDAATYYCQQWSSNPLTFGAGTKLELKRTVAAPSVFIFPPSDEQLKSGTASVVCLLNNFYPREAKVQWKVDNALQSGNSQESVTEQDSKDSTYSLSSTLTLSKADYEKHKVYACEVTHQGLSSPVTKSFNRGEC
notes: Assay control; triple mutant as described by Shields et al; also called Triple Mutation S298A, E333A, K334A; copies: 2 + 2
With B9 the “fold increase in binding vs WT” value [9] was 4 fold, the “fold increase in binding vs WT” value [1] was 5 fold and the “fold decrease in binding vs WT” value [2] was 4 fold. For the same binder, the “ADCC NK cell, purified (fold increase vs WT)” value [17] was 21 fold, the “fold decrease in binding vs WT” value (human C1q (Sigma C0660) [4]) was 2 fold and the “fold increase in binding vs WT” value [5] was 10 fold.
